Measured values: US20240200091A1, “USE OF PROTOPORPHYRINOGEN OXIDASE” (BEIJING DABEINONG BIOTECHNOLOGY CO., LTD., priority 2021, published 2024)

What was measured:
Type in all cases: in vivo
[1] = test system: Arabidopsis thaliana T1 plants; test: oxyfluorfen tolerance of transgenic Arabidopsis thaliana T1 plants (spray, grade of pesticide damage); details: 7 DAT, number of plants of 24 per genotype, grades
How it was run: (§1)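 Herbicide rates in g ai/ha are as follows: oxyfluorfen 180 or 720, saflufenacil 25 or 100, flumioxazin 60 or 240, sulfentrazone 450 or 900, each against a water control. Sprays go onto PPO-transgenic T1 plants at 18 days. At 7 DAT, leaf-area injury is graded 0–3, with grades 0–1 counted as highly resistant.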

[2] = test system: Arabidopsis thaliana T1 plants; test: saflufenacil tolerance of transgenic Arabidopsis thaliana T1 plants (spray, grade of pesticide damage); details: 7 DAT, number of plants of 24 per genotype, grades
How it was run: as §1

[3] = test system: Arabidopsis thaliana T1 plants; test: flumioxazin tolerance of transgenic Arabidopsis thaliana T1 plants (spray, grade of pesticide damage); details: 7 DAT, number of plants of 24 per genotype, grades
How it was run: as §1

[4] = test system: Arabidopsis thaliana T1 plants; test: sulfentrazone tolerance of transgenic Arabidopsis thaliana T1 plants (spray, grade of pesticide damage); details: 7 DAT, number of plants of 24 per genotype, grades
How it was run: as §1

[5] = test system: transgenic soybean plants; test: saflufenacil tolerance of transgenic soybean plants (spray, grade of pesticide damage); set-up: key to damage levels rated at grade: grade 0 means that the growth status of plants is essentially consistent with those sprayed with the blank solvent (water); grade 1 means that the average of the damage levels of plants is less than 10%; grade 2 means that the average of the damage levels of plants is greater than 100%; grade 3 means that the average of the damage levels of plants is 100%; details: for The grade of pesticide damage/plant: grade 0 / The grade of pesticide damage/plant: grade 1 / The grade of pesticide damage/plant: grade 2 / The grade of pesticide damage/plant: grade 3: 7 DAT, number of plants of 16 per genotype, grades
[6] = test system: transgenic soybean plants; test: oxyfluorfen tolerance of transgenic soybean plants (spray, grade of pesticide damage); details: for The grade of pesticide damage/plant: grade 0 / The grade of pesticide damage/plant: grade 1 / The grade of pesticide damage/plant: grade 2 / The grade of pesticide damage/plant: grade 3: 7 DAT, number of plants of 16 per genotype, grades; for tolerance to oxyfluorfen: soybean
[7] = test system: transgenic soybean plants; test: flumioxazin tolerance of transgenic soybean plants (spray, grade of pesticide damage); details: for The grade of pesticide damage/plant: grade 0 / The grade of pesticide damage/plant: grade 1 / The grade of pesticide damage/plant: grade 2 / The grade of pesticide damage/plant: grade 3: 7 DAT, number of plants of 16 per genotype, grades

B1: PPO1A: nucleotide sequence encoding microbial protoporphyrinogen oxidase PPO1 (SEQ ID NO:1), Arabidopsis thaliana/soybean common codon usage bias (nucleic acid)
DNA: ATGAAGGCTTTGGTACTCTACAGCACAAGAGACGGTCAGACACACGCGATCGCGTCGTACATTGCTAATTGCATGAAAGAGAAGTATGAGTGTGACGTTATTGATCTTCTTCATGCTCAGCATGTTACATTATCACGGTATGATAAGGTTCTTGTAGGAGCTTCTATACGATATGGACATTTCAATGCTGTGTTGGACAAATTTGTGAAGCAAAACATCCAACAACTAAACTCAATGCCTTCTGCTTTCTTTGCTGTTAATTTGACTGCCAGGAAACCTGAGAAACGTACTCCTCAGACCAATTCTTATGTTAGGAAGTTTCTTCTGGGGACACCATGGAAACCAGCAATGTGTGGCGTGTTTGCAGGAGCATTGAGGTATCCACGTTACAGATGGGTTGATAAAGTGATGATTCAGCTCATAATGAGAATGACTGGTGGTGAAACAGATACAAGCAAAGAAGTTGAGTATACTGATTGGGAACAAGTCAAAAAGTTCGCAGAAGATTTTGGAAAGCTAAGTTACAAGAAAACCCTCTGA
modifications: PPO1A Nucleotide Sequence
In the case of B1, the “The grade of pesticide damage/plant: grade 0” value ([1]; oxyfluorfen 180 g ai/ha (1×)) is reported as 24 plant, the “The grade of pesticide damage/plant: grade 1” value ([1]; oxyfluorfen 180 g ai/ha (1×)) is reported as 0 plant and the “The grade of pesticide damage/plant: grade 2” value ([1]; oxyfluorfen 180 g ai/ha (1×)) is reported as 0 plant. For the same molecule, the “The grade of pesticide damage/plant: grade 3” value ([1]; oxyfluorfen 180 g ai/ha (1×)) was 0 plant, the “The grade of pesticide damage/plant: grade 0” value ([1]; oxyfluorfen 720 g ai/ha (4×)) was 19 plant and the “The grade of pesticide damage/plant: grade 1” value ([1]; oxyfluorfen 720 g ai/ha (4×)) was 5 plant. The “The grade of pesticide damage/plant: grade 2” value ([1]; oxyfluorfen 720 g ai/ha (4×)) was 0 plant, the “The grade of pesticide damage/plant: grade 3” value ([1]; oxyfluorfen 720 g ai/ha (4×)) was 0 plant and the “The grade of pesticide damage/plant: grade 0” value ([2]; saflufenacil 25 g ai/ha (1×)) was 24 plant. The “The grade of pesticide damage/plant: grade 1” value ([2]; saflufenacil 25 g ai/ha (1×)) was 0 plant, the “The grade of pesticide damage/plant: grade 2” value ([2]; saflufenacil 25 g ai/ha (1×)) was 0 plant and the “The grade of pesticide damage/plant: grade 3” value ([2]; saflufenacil 25 g ai/ha (1×)) was 0 plant. For the same molecule, the “The grade of pesticide damage/plant: grade 0” value ([2]; saflufenacil 100 g ai/ha (4×)) was 4 plant, the “The grade of pesticide damage/plant: grade 1” value ([2]; saflufenacil 100 g ai/ha (4×)) was 20 plant and the “The grade of pesticide damage/plant: grade 2” value ([2]; saflufenacil 100 g ai/ha (4×)) was 0 plant. The “The grade of pesticide damage/plant: grade 3” value ([2]; saflufenacil 100 g ai/ha (4×)) was 0 plant, the “The grade of pesticide damage/plant: grade 0” value ([3]; flumioxazin 60 g ai/ha (1×)) was 24 plant and the “The grade of pesticide damage/plant: grade 1” value ([3]; flumioxazin 60 g ai/ha (1×)) was 0 plant. The “The grade of pesticide damage/plant: grade 2” value ([3]; flumioxazin 60 g ai/ha (1×)) was 0 plant, the “The grade of pesticide damage/plant: grade 3” value ([3]; flumioxazin 60 g ai/ha (1×)) was 0 plant and the “The grade of pesticide damage/plant: grade 0” value ([3]; flumioxazin 240 g ai/ha (4×)) was 23 plant. For the same molecule, the “The grade of pesticide damage/plant: grade 1” value ([3]; flumioxazin 240 g ai/ha (4×)) was 1 plant, the “The grade of pesticide damage/plant: grade 2” value ([3]; flumioxazin 240 g ai/ha (4×)) was 0 plant and the “The grade of pesticide damage/plant: grade 3” value ([3]; flumioxazin 240 g ai/ha (4×)) was 0 plant. The “The grade of pesticide: grade 0” value ([4]; sulfentrazone 450 g ai/ha (1×)) was 24, the “The grade of pesticide: grade 1” value ([4]; sulfentrazone 450 g ai/ha (1×)) was 0 and the “The grade of pesticide: grade 2” value ([4]; sulfentrazone 450 g ai/ha (1×)) was 0. For the same molecule, the “The grade of pesticide: grade 3” value ([4]; sulfentrazone 450 g ai/ha (1×)) was 0, the “The grade of pesticide: grade 0” value ([4]; sulfentrazone 900 g ai/ha (2×)) was 20 and the “The grade of pesticide: grade 1” value ([4]; sulfentrazone 900 g ai/ha (2×)) was 4. The “The grade of pesticide: grade 2” value ([4]; sulfentrazone 900 g ai/ha (2×)) was 0, the “The grade of pesticide: grade 3” value ([4]; sulfentrazone 900 g ai/ha (2×)) was 0 and the “The grade of pesticide damage/plant: grade 0” value ([5]; saflufenacil 50 g ai/ha (2×)) was 16 plant. The “The grade of pesticide damage/plant: grade 1” value ([5]; saflufenacil 50 g ai/ha (2×)) was 0 plant, the “The grade of pesticide damage/plant: grade 2” value ([5]; saflufenacil 50 g ai/ha (2×)) was 0 plant and the “The grade of pesticide damage/plant: grade 3” value ([5]; saflufenacil 50 g ai/ha (2×)) was 0 plant. For the same molecule, the “The grade of pesticide damage/plant: grade 0” value ([5]; saflufenacil 100 g ai/ha (4×)) was 16 plant, the “The grade of pesticide damage/plant: grade 1” value ([5]; saflufenacil 100 g ai/ha (4×)) was 0 plant and the “The grade of pesticide damage/plant: grade 2” value ([5]; saflufenacil 100 g ai/ha (4×)) was 0 plant. For the same molecule, the “The grade of pesticide damage/plant: grade 3” value ([5]; saflufenacil 100 g ai/ha (4×)) was 0 plant, the tolerance to saflufenacil ([5]; soybean, saflufenacil at four-fold field concentration (100 g ai/ha)) was “high-resistant tolerance” and the “damage levels rated at grade” value ([5]; soybean, saflufenacil at two-fold field concentration (50 g ai/ha)) was 0. The tolerance to saflufenacil ([5]; soybean, saflufenacil, compared with the control vector and CK) was “different extents of tolerance”, the “The grade of pesticide damage/plant: grade 0” value ([6]; oxyfluorfen 360 g ai/ha (2×)) was 16 plant and the “The grade of pesticide damage/plant: grade 1” value ([6]; oxyfluorfen 360 g ai/ha (2×)) was 0 plant. For the same molecule, the “The grade of pesticide damage/plant: grade 2” value ([6]; oxyfluorfen 360 g ai/ha (2×)) was 0 plant, the “The grade of pesticide damage/plant: grade 3” value ([6]; oxyfluorfen 360 g ai/ha (2×)) was 0 plant and the “The grade of pesticide damage/plant: grade 0” value ([6]; oxyfluorfen 720 g ai/ha (4×)) was 16 plant. The “The grade of pesticide damage/plant: grade 1” value ([6]; oxyfluorfen 720 g ai/ha (4×)) was 0 plant, the “The grade of pesticide damage/plant: grade 2” value ([6]; oxyfluorfen 720 g ai/ha (4×)) was 0 plant and the “The grade of pesticide damage/plant: grade 3” value ([6]; oxyfluorfen 720 g ai/ha (4×)) was 0 plant. The tolerance to oxyfluorfen ([6]; oxyfluorfen at four-fold field concentration (720 g ai/ha)) was “high-resistant tolerance”, the tolerance to oxyfluorfen ([6]; oxyfluorfen at two-fold field concentration (360 g ai/ha)) was “high-resistant tolerance” and the “The grade of pesticide damage/plant: grade 0” value ([7]; flumioxazin 120 g ai/ha (2×)) was 16 plant. The “The grade of pesticide damage/plant: grade 1” value ([7]; flumioxazin 120 g ai/ha (2×)) was 0 plant, the “The grade of pesticide damage/plant: grade 2” value ([7]; flumioxazin 120 g ai/ha (2×)) was 0 plant and the “The grade of pesticide damage/plant: grade 3” value ([7]; flumioxazin 120 g ai/ha (2×)) was 0 plant. For the same molecule, the “The grade of pesticide damage/plant: grade 0” value ([7]; flumioxazin 240 g ai/ha (4×)) was 16 plant, the “The grade of pesticide damage/plant: grade 1” value ([7]; flumioxazin 240 g ai/ha (4×)) was 0 plant and the “The grade of pesticide damage/plant: grade 2” value ([7]; flumioxazin 240 g ai/ha (4×)) was 0 plant. The “The grade of pesticide damage/plant: grade 3” value ([7]; flumioxazin 240 g ai/ha (4×)) was 0 plant and the tolerance to flumioxazin ([7]; soybean, flumioxazin at different concentrations (120 and 240 g ai/ha)) was “high-resistant tolerance”.
